According to patent US20030166571A1 (SYNVAX, published 2003):
Numbered stars: 1 amine (or outer) side, 2 acyl side, 3 side chain; on linkers, the order of the positions; unused ones are H or OH. Square brackets hold non-standard residues; d marks the D form. Ends that are not written are not given here. * marks the point of attachment. Tyr(BN,3-Cl) = tyrosine with benzyl (BN) and 3-Cl, O=C([C@H](Cc1ccc(OCc2ccccc2)c(Cl)c1)N[*:1])[*:2]; Phe(4-NO2) = N[C@@H](Cc1ccc([N+](=O)[O-])cc1)C(=O)O; Phe(4-SO3H) = N[C@@H](Cc1ccc(S(=O)(=O)O)cc1)C(=O)O; Trp(5-CN) = N#Cc1ccc2[nH]cc(C[C@H](N)C(=O)O)c2c1; Phe(4-COOH) = N[C@@H](Cc1ccc(C(=O)O)cc1)C(=O)O; Phe(4-CN) = N#Cc1ccc(C[C@H](N)C(=O)O)cc1; Phe(4-F) = N[C@@H](Cc1ccc(F)cc1)C(=O)O; Phe(4-Me) = Cc1ccc(C[C@H](N)C(=O)O)cc1; hPhe = N[C@@H](CCc1ccccc1)C(=O)O; Phg = N[C@H](C(=O)O)c1ccccc1; Ac6c = NC1(C(=O)O)CCCCC1; Pentanoyl = CCCCC(=O)*

Columns and labels:
[1] = biological target: T1, human ORL-1 receptor (opioid receptor like 1) (human, UniProt P41146 1-370); assay: [3H]nociceptin displacement, membranes of CHO cells transfected with human ORL-1; Ki=IC50/(1+L/Kd)
T1 construct: whole, on cells; Assays were run on membranes of CHO cells transfected with human ORL-1; also called opiate receptor like 1; nociceptin receptor
T1 sequence (P41146 whole entry): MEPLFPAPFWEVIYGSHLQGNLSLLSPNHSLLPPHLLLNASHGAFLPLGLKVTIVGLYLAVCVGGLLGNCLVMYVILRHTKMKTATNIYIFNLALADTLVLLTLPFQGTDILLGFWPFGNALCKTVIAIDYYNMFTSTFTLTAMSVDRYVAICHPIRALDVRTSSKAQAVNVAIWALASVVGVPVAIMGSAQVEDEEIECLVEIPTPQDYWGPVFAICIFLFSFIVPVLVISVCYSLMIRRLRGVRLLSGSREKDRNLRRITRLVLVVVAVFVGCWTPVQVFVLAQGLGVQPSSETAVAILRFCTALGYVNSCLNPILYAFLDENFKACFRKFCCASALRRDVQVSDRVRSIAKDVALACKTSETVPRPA
Method: Receptor binding studies were conducted on human ORL1 (opiate receptor like 1) transfected into Chinese hamster ovary (CHO) cells using each of the hexapeptide analog compounds of Table 3. All the compounds were evaluated for binding affinities. […] The data shown in Table 5 represents the average±SEM of at least two experiments conducted in triplicate.
Cells are removed from the plates by scraping with a rubber policeman, and then homogenized in Tris buffer using a Polytron homogenizer. Following this homogenization step, the cellular mixture is centrifuged once and washed by an additional centrifugation at 40,000×g for 15 min. The pellet formed during the centrifugation is re-suspended in 50 mM Tris, pH 7.5. […] Samples of the suspension are then filtered over glass fiber filters using a Wallac cell harvester.
For the data in Table 5, binding was conducted as described above. IC₅₀ values and Hill coefficients were determined using the curve-fitting program Prism. K₁ values were calculated using the equation K₁=IC₅₀/(1+[L]/Kd). […] The data in Table 5 represent the average±SEM of at least two experiments conducted in triplicate.

[2] = biological target: T1, human ORL-1 receptor (opioid receptor …); assay: cell-based or functional assay

| Binder | Ki [1] [nM] | % Stimulation of [35S]GTPγS binding [2] [%] | EC50 (nM) of stimulation of [35S]GTPγS binding [2] [nM] |
| --- | --- | --- | --- |
| Ac-RY[Phg]RWR-NH2 (SMILES CC(=O)N[C@@H](CCCNC(=N)N)C(=O)N[C@@H](Cc1ccc(O)cc1)C(=O)N[C@H](C(=O)N[C@@H](CCCNC(=N)N)C(=O)N[C@@H](Cc1c[nH]c2ccccc12)C(=O)N[C@@H](CCCNC(=N)N)C(N)=O)c1ccccc1, also called Ac-Arg-Tyr-Phg-Arg-Trp-Arg-NH2) [VII-13-B] | 27 |  |  |
| Ac-R[Tyr(BN,3-Cl)]YRWR-NH2 (also called Ac-Arg-Tyr(BN*, 3-Cl)-Tyr-Arg-Trp-Arg-NH2) [VII-39-D] | 0.03 | 89 | 0.3 |
| Ac-R[Phe(4-CN)]YRWR-NH2 (SMILES CC(=O)N[C@@H](CCCNC(=N)N)C(=O)N[C@@H](Cc1ccc(C#N)cc1)C(=O)N[C@@H](Cc1ccc(O)cc1)C(=O)N[C@@H](CCCNC(=N)N)C(=O)N[C@@H](Cc1c[nH]c2ccccc12)C(=O)N[C@@H](CCCNC(=N)N)C(N)=O, also called Ac-Arg-Phe(4-CN)-Tyr-Arg-Trp-Arg-NH2) [VII-43-C] | 0.15 | 49.7 | 29.5 |
| Ac-R[Phe(4-Me)]YRWR-NH2 (SMILES CC(=O)N[C@@H](CCCNC(=N)N)C(=O)N[C@@H](Cc1ccc(C)cc1)C(=O)N[C@@H](Cc1ccc(O)cc1)C(=O)N[C@@H](CCCNC(=N)N)C(=O)N[C@@H](Cc1c[nH]c2ccccc12)C(=O)N[C@@H](CCCNC(=N)N)C(N)=O, also called Ac-Arg-Phe(4-Me)-Tyr-Arg-Trp-Arg-NH2) [VII-15-B] | 0.48 | 59.8 | 18.8 |
| Ac-R[Phg][Phg]RWR-NH2 (SMILES CC(=O)N[C@@H](CCCNC(=N)N)C(=O)N[C@H](C(=O)N[C@H](C(=O)N[C@@H](CCCNC(=N)N)C(=O)N[C@@H](Cc1c[nH]c2ccccc12)C(=O)N[C@@H](CCCNC(=N)N)C(N)=O)c1ccccc1)c1ccccc1, also called Ac-Arg-Phg-Phg-Arg-Trp-Arg-NH2) [VII-11-B] | 30.4 |  |  |
| Ac-R[Phe(4-COOH)]YRWR-NH2 (SMILES CC(=O)N[C@@H](CCCNC(=N)N)C(=O)N[C@@H](Cc1ccc(C(=O)O)cc1)C(=O)N[C@@H](Cc1ccc(O)cc1)C(=O)N[C@@H](CCCNC(=N)N)C(=O)N[C@@H](Cc1c[nH]c2ccccc12)C(=O)N[C@@H](CCCNC(=N)N)C(N)=O, also called Ac-Arg-Phe(4-COOH)-Tyr-Arg-Trp-Arg-NH2) [VII-19-B] | 40.6 | 45.5 | 854 |
| Nipacotyl-RYYRWR-NH2 (also called Nipacotyl-Arg-Tyr-Tyr-Arg-Trp-Arg-NH2) [VII-1-A] | 30.3 | < 20 |  |
| Ac-R[Phe(4-F)]YRWR-NH2 (SMILES CC(=O)N[C@@H](CCCNC(=N)N)C(=O)N[C@@H](Cc1ccc(F)cc1)C(=O)N[C@@H](Cc1ccc(O)cc1)C(=O)N[C@@H](CCCNC(=N)N)C(=O)N[C@@H](Cc1c[nH]c2ccccc12)C(=O)N[C@@H](CCCNC(=N)N)C(N)=O, also called Ac-Arg-Phe(4-F)-Tyr-Arg-Trp-Arg-NH2) [VII-31-B] | 0.52 | 54.4 | 35.7 |
| Ac-R[Tyr(4-Me)]YRWR-NH2 (also called Ac-Arg-Tyr(4-Me)-Tyr-Arg-Trp-Arg-NH2) [VII-35-C] | 0.43 | 52.1 | 51.1 |
| Ac-R[Tyr(4-Me)][Tyr(4-Me)]RWR-NH2 (also called Ac-Arg-Tyr(4-Me)-Tyr(4-Me)-Arg-Trp-Arg-NH2) [VII-37-B] | 6.29 | < 20 |  |
| Pentanoyl-RYYRWR-NH2 (SMILES CCCCC(=O)N[C@@H](CCCNC(=N)N)C(=O)N[C@@H](Cc1ccc(O)cc1)C(=O)N[C@@H](Cc1ccc(O)cc1)C(=O)N[C@@H](CCCNC(=N)N)C(=O)N[C@@H](Cc1c[nH]c2ccccc12)C(=O)N[C@@H](CCCNC(=N)N)C(N)=O, also called Pentanoyl-Arg-Tyr-Tyr-Arg-Trp-Arg-NH2; Pentanoyl-RYYRWR-NH2) [VII-7-B] | 0.16 | < 20 |  |
| Ac-R[Phe(4-SO3H)]YRWR-NH2 (also called Ac-Arg-Phe(SO3H)-Tyr-Arg-Trp-Arg-NH2) [VII-27-B] | 155 |  |  |
| [Ac6c]RYYRWR-NH2 (N-terminus assumed; SMILES N=C(N)NCCC[C@H](NC(=O)[C@H](Cc1c[nH]c2ccccc12)NC(=O)[C@H](CCCNC(=N)N)NC(=O)[C@H](Cc1ccc(O)cc1)NC(=O)[C@H](Cc1ccc(O)cc1)NC(=O)[C@H](CCCNC(=N)N)NC(=O)C1(N)CCCCC1)C(N)=O, also called 1-aminocyclohexanoyl-Arg-Tyr-Tyr-Arg-Trp-Arg-NH2) [VII-4-B] | 9.25 | < 20 |  |
| Ac-R[hPhe][hPhe]RWR-NH2 (SMILES CC(=O)N[C@@H](CCCNC(=N)N)C(=O)N[C@@H](CCc1ccccc1)C(=O)N[C@@H](CCc1ccccc1)C(=O)N[C@@H](CCCNC(=N)N)C(=O)N[C@@H](Cc1c[nH]c2ccccc12)C(=O)N[C@@H](CCCNC(=N)N)C(N)=O, also called Ac-Arg-hPhe-hPhe-Arg-Trp-Arg-NH2) [VII-49-B] | 5.49 | < 20 |  |
| Ac-RYYR[Trp(5-CN)]R-NH2 (SMILES CC(=O)N[C@@H](CCCNC(=N)N)C(=O)N[C@@H](Cc1ccc(O)cc1)C(=O)N[C@@H](Cc1ccc(O)cc1)C(=O)N[C@@H](CCCNC(=N)N)C(=O)N[C@@H](Cc1c[nH]c2ccc(C#N)cc12)C(=O)N[C@@H](CCCNC(=N)N)C(N)=O, also called Ac-Arg-Tyr-Tyr-Arg-Trp(5-CN)-Arg-NH2) [VII-51-A] | 0.3 | 49.1 | 156 |
| Ac-R[Phe(4-Me)][Phe(4-Me)]RWR-NH2 (SMILES CC(=O)N[C@@H](CCCNC(=N)N)C(=O)N[C@@H](Cc1ccc(C)cc1)C(=O)N[C@@H](Cc1ccc(C)cc1)C(=O)N[C@@H](CCCNC(=N)N)C(=O)N[C@@H](Cc1c[nH]c2ccccc12)C(=O)N[C@@H](CCCNC(=N)N)C(N)=O, also called Ac-Arg-Phe(4-Me)-Phe(4-Me)-Arg-Trp-Arg-NH2) [VII-17-B] | 10.1 | < 20 |  |
| Ac-R[Phe(4-NO2)]YRWR-NH2 (SMILES CC(=O)N[C@@H](CCCNC(=N)N)C(=O)N[C@@H](Cc1ccc([N+](=O)[O-])cc1)C(=O)N[C@@H](Cc1ccc(O)cc1)C(=O)N[C@@H](CCCNC(=N)N)C(=O)N[C@@H](Cc1c[nH]c2ccccc12)C(=O)N[C@@H](CCCNC(=N)N)C(N)=O, also called Ac-Arg-Phe(NO2)-Tyr-Arg-Trp-Arg-NH2) [VII-23-B] | 0.44 | 56.6 | 15.7 |
| {β‑Nva}-RYYRWR-NH2 (also called β-Nva-Arg-Tyr-Tyr-Arg-Trp-Arg-NH2) [VII-2-A] | 11.8 | < 20 |  |
| Ac-R[Phe(4-F)][Phe(4-F)]RWR-NH2 (SMILES CC(=O)N[C@@H](CCCNC(=N)N)C(=O)N[C@@H](Cc1ccc(F)cc1)C(=O)N[C@@H](Cc1ccc(F)cc1)C(=O)N[C@@H](CCCNC(=N)N)C(=O)N[C@@H](Cc1c[nH]c2ccccc12)C(=O)N[C@@H](CCCNC(=N)N)C(N)=O, also called VII-33-C; Ac-Arg-Phe(4-F)-Phe(4-F)-Arg-Trp-Arg-NH2) [VII-33-B] | 1.51 | < 20 |  |
| {β‑aminoisobutryl}-RYYRWR-NH2 (also called β-aminoisobutryl-Arg-Tyr-Tyr-Arg-Trp-Arg-NH2) [VII-3-A] | 1.18 | 29.1 | 68 |
